Results on 83 variants are retold here after the RNAGym collection of RNA variant scans (doi:10.1101/gr.219683.116).

The labels stand for the following.
B1: mRNA-splicing (parent)
chain: AGUUGCUGCUGGGAGCUCCAGCACAGUGAAAUGGACAGAAGGGCAGAGCAA

In the data set the parent is B1. As to the kind of experiment: exon inclusion enrichment index; higher = more inclusion; WT1 exon 5 minigene, HEK293.
With G5A U7C G8A U10C A25U G26A, the “exon inclusion enrichment index” value is 2.39.
As for G15U, the “exon inclusion enrichment index” value amounted to 0.0812.
Take G5A C6U U7A G8U C9A U17C C18U: the “exon inclusion enrichment index” value was found to be 0.0327.
The result for G34C A35U reads 0.0271.
With C6A U7C C9A U10C A40C, the “exon inclusion enrichment index” value turned out to be 3.36.
Consider G5A C6U U7A G8U C9A A30G A31U, for which the “exon inclusion enrichment index” value came out at 0.0123.
The result for G5A C6G U7G C9A G43U C44U reads 0.00214; that for G5U U7A C9A U10A, 0.286.
As for G5C C6U G8C C9U U10C G13A A14U, the “exon inclusion enrichment index” value is 2.38.
Next, C6A U7C C9A U10C C24U A25G: 3.92.
The result for C6A U7A C9A U10A C36G A37C reads 0.129; that for G5C C6G U10C, 2.11.
On to G5C C6U G8C C9U U10C G28A A29G, for which the “exon inclusion enrichment index” value was found to be 0.736.
Next, G5C C6A U7C G8A U10A G12C G13U: 0.0133; G5C C6A U7C G8A U10A A47U G48U: 0.111; G5C C6G U7C U10C C24G: 4.23.
On to G5C C6A U7C G8A U10A G15C C16U, for which the “exon inclusion enrichment index” value came to 0.0687.
Next, G5C C6G U7C U10C G43C: 2.7.
Next, G5A C6U U7A G8U C9G: 0.0579.
C6A U7C C9A U10C G12A G13U: the “exon inclusion enrichment index” value turned out to be 1.08.
The result for G5A U7C G8A U10C G28C A29G reads 3.25; that for G5C C6G U7C U10C G21U C22A, 1.73.
The result for G5C C6G U7C U10C G21U C22G reads 3.57.
Regarding G5U G8U C9U G33C G34U, the “exon inclusion enrichment index” value is 0.0844.
With G5C C6A U7C G8A U10A G13A A14C, the “exon inclusion enrichment index” value amounted to 0.899.
Take G5A U7C G8A U10C G15U: the “exon inclusion enrichment index” value is 2.27.
The result for G5A U7C G8A U10C C18A C19A reads 0.451; that for G2U G5U G8U C9U, 0.329.
The result for C6A U7A C9G reads 0.28; that for G5C U7A G8C C9U U10C, 0.259.
As to G5A C6U U7A G8U C9A G43A C44G, the “exon inclusion enrichment index” value was found to be 0.476.
With C6A U7A C9A U10A C18A C19G, the “exon inclusion enrichment index” value was 0.0285.
Next, G5C C6U G8C C9U U10C C22A A23G: 2.07; G5A U7C G8A U10C C19A A20U: 0.815; G5U G8U C9U A14U G15U: 0.00524.
Next, G42U G43C: 0.112; C6A U7C C9A U10C G33A G34C: 1.06; C6A U7C C9A U10C G46A A47U: 2.94.
Next, G5A U7C G8A U10C C44G A45U: 1.92.
G5C C6A U7C G8A U10A G15A C16G: the “exon inclusion enrichment index” value was 0.0227.
The result for G5A C6G U7G C9A C24G A25G reads 0.00108; that for G5U G8U C9U C19G A20C, 0.13; that for G5U G8U C9U U27C, 0.478.
The result for G5C C6U G8C C9U U10C A47C reads 2.38; that for G5C C6A U7C G8A U10A G34C A35G, 0.0658; that for G5C C6U G8C C9U U10C G26U U27G, 2.97.
The result for G5C C6U G8U C9U U10C reads 0.615; that for C6A U7C C9A U10C G38A A39C, 2.55; that for G5U G8U C9U A47C G48U, 0.134.
As for G2C U3C G5C C6U G8C C9U U10C, the “exon inclusion enrichment index” value amounted to 1.91.
Next, G5C C6A U7C G8A U10A G21U C22G: 0.113.
As to C6A U7A C9A U10A C18U C19A, the “exon inclusion enrichment index” value was 0.046.
Next, G5C C6G U7C U10C A25U G26A: 3.89; G5A C6G U7G C9A A47C: 0.0181; G5C C6A U7C G8A U10A G11U G12A: 0.0375.
Next, U27C: 0.36.
Next, G5A C6G U7G C9A U32G G33C: 0.00522; G5C C6U G8C C9U U10C C22G: 2.51.
For G5U G8U C9U G13U A14G, the “exon inclusion enrichment index” value was determined as 0.0118.
Next, G5A U7C G8A U10C G28A: 0.733; G5A U7C G8A U10C G33A G34C: 0.421.
The result for U32G G33A reads 0.042; that for G5A C6G U7G C9A A14G G15C, 0.00222; that for G5U G8U C9U G46C A47C, 0.234.
The result for G5U G8U C9U G46C A47G reads 0.306; that for G5C C6U G8C C9U U10C U17G, 1.65.
In the case of G5A C6G U7G C9A G28C A29U, the “exon inclusion enrichment index” value came to 0.00174.
Next, A39G A40U: 0.0108; G5C C6G U7C U10C C18G C19G: 4.32.
Next, G5C C6G U7C U10C A20C: 3.4; C6A U7A C9A U10A A45G G46C: 1.17; G5C C6G U7C U10C G42U G43A: 4.08.
For C6A U7C C9A U10C G28U A29U, the “exon inclusion enrichment index” value amounted to 1.26.
Next, G21A C22U: 1.19; C6A U7A C9A U10A G33C G34C: 0.353.
Next, G5A C6G U7G C9A A25G: 0.0133.
The result for G5U G8U C9U C22G A23G reads 0.0211.
Regarding G21C, the “exon inclusion enrichment index” value was 2.64.
Next, U4G G5C C6U G8C C9U U10C: 1.14; U3G U4G: 0.00805; G5C C6U G8C C9U U10C G42A G43C: 4.2.
G5U G8U C9G U10G: the “exon inclusion enrichment index” value was found to be 0.108.
The result for G5A C6U U7A G8U C9A A25G G26U reads 0.231.
